Patent publication US11497796B2, “Agents directed against a cis RGMa/neogenin interaction or lipid rafts and use of the same in methods of treatment” (UNIVERSITY HEALTH NETWORK, priority 2013, dated 2022)
One block for each molecule: values may come before it.

Experiments:
[1] = tested on: photoreceptor cells; assay: Photoreceptor survival in rd1 mice (retinitis pigmentosa model); type: in vivo, mouse
Experimental: The rd1 mouse model is a model for human RP and carried a loss-of-function mutation in the gene encoding for the β-subunit of the rod photoreceptor cGMP phosphodiesterase-6.2. This loss-of-function mutation led to an accumulation of cGMP, which caused photoreceptor cell death.
In these studies, intraocular injection of the 4Ig (2 μg/μl) peptide at P9 and P15 was performed and animals were sacrificed at P21 to examine cell survival. […] Injection of 4Ig increased outer nuclear layer (ONL) thickness to about 6 cells (FIG. 19). This measurement was the average thickness of the ONL.
As described above, cholesterol depletion removes lipid rafts. Specifically, mice were treated with daily […] (IP) injections of MβCD from P9 to P21.
To examine the effect of reducing cholesterol synthesis on cell survival, AY-9944 was examined in rd1 mice (FIGS. 20 and 21). Rd1 mice were treated using two intra-peritoneal injections of AY-9944, at P9 and P15 and sacrificed at P21.

[2] = tested on: retinal explants (retinal ganglion cell neurites); assay: Retinal explant neurite outgrowth on laminin or myelin; type: cell-based, chick; details: AY-9944 1 μM, BM15.766 4 μM, 18 hrs
Experimental: (§1) Retinal explants outgrowth assay. Poly-L-Lysine (PLL; SIGMA; 10 μg/ml) coated glass coverslips were treated with Laminin (10 μg/ml; Invitrogen) and RGMa proteins (5 μg) and incubated for 3 hrs at room temperature. PLL treated coverslips were coated with myelin overnight (6 μg/cm2), followed by coating with Laminin. Temporal retinal explants were cultured on either myelin or protein-coated surfaces in DMEM F-12 media (2% chick serum, 10% FBS) for 18 h. To disrupt rafts, explants were pre-treated with 10 mM MβCD for 12 min or 2 U/ml CO for 1 h at 37° C., washed, and cultured on protein coated coverslips. Explants were then fixed with 4% PFA and stained with Alexa488-fluor-phalloidin (1:50; Molecular Probes). Fiber length was quantified using Image Pro 5.0.
Specifically, retinal explants were prepared from E7 chick embryos, cultured on coverslips coated with on Laminin or myelin, and treated with control (DMSO) or AY-9944 (1 μM) or BM15.766 (4 μM), two inhibitors of cholesterol biosynthesis. After 18 hrs in culture, explants were fixed with 4% PFA and stained with Alexa488-Phalloidin. Neurites were measured using Cellsens software. Retinal explants were cultured on laminin (control) or myelin (the inhibitory compound of the CNS). On laminin, axon growth was normal compared to myelin because myelin inhibited outgrowth.

[3] = biological target: T1, 6FNIII-domain of Neogenin (Gallus gallus, UniProt Q90610); assay: ELISA / AP binding assay of RGMa peptides to Neogenin domains; details: Neogenin domains fused to AP
T1 construct: made in house
T1 sequence (Q90610 429-1036): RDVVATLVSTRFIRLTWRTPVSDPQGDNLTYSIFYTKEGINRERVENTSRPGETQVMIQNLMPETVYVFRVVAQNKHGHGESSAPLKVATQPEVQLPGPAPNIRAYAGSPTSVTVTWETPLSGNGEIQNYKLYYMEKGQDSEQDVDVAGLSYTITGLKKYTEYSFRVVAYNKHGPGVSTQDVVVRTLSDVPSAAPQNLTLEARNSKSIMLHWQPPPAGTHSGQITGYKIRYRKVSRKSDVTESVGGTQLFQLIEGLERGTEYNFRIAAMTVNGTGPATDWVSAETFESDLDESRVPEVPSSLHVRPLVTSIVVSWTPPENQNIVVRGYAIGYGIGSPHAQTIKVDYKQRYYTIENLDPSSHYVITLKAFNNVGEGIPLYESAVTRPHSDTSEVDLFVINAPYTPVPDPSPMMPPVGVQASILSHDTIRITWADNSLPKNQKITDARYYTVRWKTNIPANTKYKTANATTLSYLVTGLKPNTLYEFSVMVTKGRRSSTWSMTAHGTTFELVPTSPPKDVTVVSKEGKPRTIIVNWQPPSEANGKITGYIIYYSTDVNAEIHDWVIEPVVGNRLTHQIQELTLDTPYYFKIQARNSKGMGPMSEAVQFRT
Description: (§2) Specifically, the 4Ig-domain and 6FNIII-domain of Neogenin were each fused to alkaline phosphatase (AP). The 4Ig-domain and 6FNIII-domain of Neogenin were found in the extracellular portion of Neogenin. Accession No. AAC59662 (SEQ ID NO:1) was the amino acid sequence of Neogenin. The 4Ig-domain was amino acids 1 to 383 of Accession No. AAC59662 (SEQ ID NO:1). The 6FNIII-domain was amino acids 429 to 1036 of Accession No. AAC59662 (SEQ ID NO:1).
(§3) The binding of these fusions to various RGMa peptides were analyzed in an ELISA assay (FIG. 2A).
(§4) To determine if distinct N-terminal regions of RGMa bound the 4Ig- and 6FNIII-domains of Neogenin, peptides were generated that spanned the N-terminal region of RGMa. The amino acid sequence of RGMa was Accession No. NP_989868.1 (SEQ ID NO:6). These peptides were a peptide spanning amino acids 28-73 of RGMa (also referred to herein as “N-Raft”) and a peptide spanning amino acids 77-113 of RGMa (also referred to herein as “N-inh”). […] In a complementary experiment, in which the N-Raft and N-inh peptides of RGMa were fused with AP instead of the 4Ig- and 6FNIII-domains of Neogenin, N-Raft bound to the 4Ig-domain and not the 6FNIII-domain while N-inh bound to the 6FNIII-domain and not the 4Ig-domain (FIG. 9). Additionally, N-inh and N-Raft coated beads pulled down 6FNIII-domain and 4Ig-domain, respectively, which was consistent with the ELISA results described above (FIG. 2B).
(§5) The assay was conducted in a 96-well microtiter plate (Corning Incorporated). The wells were coated with 100 μl (10 μg/mL) of Poly-L-Lysine at 4° C. overnight. Wells were then washed three times with 100 μl of PB ST (+0.02% Tween).
(§6) 50 μl (2.5 μg/mL) of His-tagged: Full-length Neogenin; the 4Ig-domain of Neogenin; and 6FNIII-domain of Neogenin were coated onto each well for 1 hour at 37° C. Following three washes of 100 μl PBST, each well was then blocked with 300 μl of 3% BSA in PBST for 1 hour at 37° C.
(§7) 50 μl (1.0 μg/mL) AP-tagged: N-RGMa (28-73); N-RGMa (28-54); N-RGMa (40-62); N-RGMa (54-73); N-RGMa (54-62) in 1% BSA+PBST was then added to each well and incubated at 37° C. for 1 hour. Each well was washed thoroughly three times with 100 μl PBST followed by subsequent equilibration of each well with Alkaline Phosphatase (AP) developing buffer (100 mM NaHCO3, 1 mM MgCl2). The reaction was developed using AP developing buffer supplemented with, p-nitrophenyl phosphate (pNPP) (Sigma-Aldrich) and allowed to develop until color development. The reaction was stopped with the addition of 50 μl (0.1M) NaOH. The absorbance of each reaction was measured using a microplate autoreader (BIO-TEK Instruments Inc.) at 405 nanometers (nm) wavelength.

[4] = biological target: T2, 6FNIII-domain of Neogenin (His-6FNIII) (Gallus gallus, UniProt Q90610); assay: Pull-down assay with peptide-coated beads; type: binding; details: Western blot with anti-His
T2 construct: His; made in house
T2 sequence (Q90610 429-1036): T1 sequence (Q90610 429-1036)
Experimental: (A) RGMa proteins were incubated on plates coated with 4Ig- or 6FNIII-AP. One C- and one N-RGMa domain (N-RGMa^77-113) interacted with 6FNIII. One N-RGMa domain (N-Raft) interacted with 4Ig. (B) Supernatants (Sup) from cells expressing His-6FNIII or His-4Ig, were pulled down (IP) with beads coated with N-Raft, N-RGMa^50-99, and N-inh. Western Blot was then performed with an anti-His antibody to reveal whether or not His-6FNIII or His-4Ig interacted with the coated beads. […] Data are average±SEM (n=3 independent experiments), *p<0.0001. Scale bar, 100 μm. (E) Chick brains were injected with control peptide (Ctrl; N-RGMa^50-99), 4Ig, N-Raft, or Noggin 1 day before preparing membrane fractionations. In control experiments, Neogenin localized to the Flotillin/RGMa-containing lipid raft fraction (as shown in solid lined boxes). 4Ig, N-Raft, or Noggin shifted Neogenin to heavy fractions.
Proteins were coupled to activated CNBr Sepharose beads (Pharmacia) according to supplier instructions. Supernatants from transfected cells were added to coupled beads for 2 h at room temperature (RT). Beads were then washed 6× with PBS plus 0.02% Tween 20, and SDS loading buffer was added. Samples were boiled and subjected to Western blotting.

[5] = tested on: temporal retinal explants (axonal outgrowth); assay: Retinal explants outgrowth assay; type: cell-based, chick; details: for effect on axonal outgrowth when provided as growth substrate (in trans): protein as substrate
Experimental: Poly-L-Lysine (SIGMA; 10 μg/ml) coated glass coverslips were treated with Laminin (Invitrogen; 10 μg/ml) and RGMa proteins (5 μg/ml) and incubated for 3 hours at room temperature. Temporal retinal explants were cultured on protein-coated surfaces for 18 hours. To disrupt the lipid rafts, explants were pretreated with 10 mM methyl-β-cyclodextrin (MβCD) for 12 minutes or 2 U/ml cholesterol oxidase (CO) for 1 hour at 37° C. Explants were then fixed with 4% paraformaldehyde (PFA) and stained with Alexa488-phalloidin. Fiber length was quantified using Image Pro 5.0. For immunolocalization, explants were treated with Cholera Toxin B-FITC (C1655; Sigma; 10 mg/mL) and patched, fixed and stained with Neogenin antibody. Retinal ganglion cells (RGCs) were electroporated with RGMa-His and cultured for 18 hours. The cells were fixed and stained with Neogenin and His-tag antibodies.
as §1
Statistical analysis of retinal outgrowth assays was performed using Student's two-tail t-test using Excel (Microsoft). Results were expressed as the mean±SEM (n=at least 3 independent experiments; 2 duplicates per independent experiment, >10 explants per duplicate).

[6] = biological target: T3, 4Ig-domain of Neogenin (Gallus gallus, UniProt Q90610); assay: ELISA / AP binding assay of RGMa peptides to Neogenin domains; details: for interaction with the 4Ig-domain of Neogenin: ELISA, Neogenin domains fused to AP
T3 construct: made in house
T3 sequence (Q90610 1-383): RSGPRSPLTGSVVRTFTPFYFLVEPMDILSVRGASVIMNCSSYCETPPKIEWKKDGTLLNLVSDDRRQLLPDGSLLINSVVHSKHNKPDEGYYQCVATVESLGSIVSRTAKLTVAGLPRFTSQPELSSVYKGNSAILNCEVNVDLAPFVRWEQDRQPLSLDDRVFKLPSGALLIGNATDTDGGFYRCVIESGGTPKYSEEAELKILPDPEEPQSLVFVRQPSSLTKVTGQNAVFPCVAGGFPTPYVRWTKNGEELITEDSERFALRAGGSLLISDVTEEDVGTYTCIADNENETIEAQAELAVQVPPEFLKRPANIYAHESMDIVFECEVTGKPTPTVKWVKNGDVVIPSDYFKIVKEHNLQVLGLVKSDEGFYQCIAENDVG
Description: as §2, §3, §4, §5, §6, §7

Molecule: Clc1ccccc1CNCC1CCC(CNCc2ccccc2Cl)CC1 (stereo not shown) [AY-9944]
number of rods within the Outer Nuclear Layer (anti-Rhodopsin) ([1]; injected at P9, P21): dramatic increase in the number of rods
photoreceptor survival ([1]; two intra-peritoneal injections at P9 and P15, sacrificed at P21): promoted photoreceptor survival
outgrowth on laminin [2]: did not influence outgrowth on laminin
outgrowth on myelin [2]: restored outgrowth on myelin

Molecule: O=C(O)c1ccc(CCN2CCN(C/C=C/c3ccc(Cl)cc3)CC2)cc1 [BM15.766]
outgrowth on laminin [2]: did not influence outgrowth on laminin
outgrowth on myelin [2]: restored outgrowth on myelin

interaction with the 6FNIII-domain of Neogenin [3]: interacted
pull-down of 6FNIII-domain by peptide-coated beads [4]: pulled down
Molecule: N-inh: peptide spanning amino acids 77-113 of RGMa (GDLAYHSAVHGIDDLMVQHNCSKDGPTSQPRLRTLPP; left off: small tags and cut ends)
axonal growth on peptide as substrate ([5]; RGMa peptide as substrate, controls 238.1±9.3 μm): 88.1±13.3 μm

binding to the 4Ig-domain of Neogenin ([6]; AP-tagged fragments 1.0 μg/mL on coated His-tagged 4Ig): did not bind
interaction with the 4Ig-domain of Neogenin [6]: did not interact
interaction with the 6FNIII-domain of Neogenin [3]: interacted
B1: RGMaΔ: RGMaΔ was full-length RGMa (protein)
chain: CKILKCNSEFWAATSGSHHLGAEETPEFCTALRAYAHCTRRTARTCRGDLAYHSAVHGIDDLMVQHNCSKDGPTSQPRLRTLPPGDSQERSDSPEICHYEKSFHKHSAAPNYTHCGLFGDPHLRTFTDTFQTCKVQGAWPLIDNNYLNVQVTNTPVLPGSSATATSKLTIIFKSFQECVEQKVYQAEMDELPAAFADGSKNGGDKHGANSLKITEKVSGQHIEIQAKYIGTTIVVRQVGRYLTFAVRMPEEVVNAVEDRDSQGLYLCLRGCPLNQQIDFQTFRLAQAAEGRARRKGPSLPAPPEAFTYESATAKCREKLPVEDLYFQSCVFDLLTTGDVNFMLAAYYAFEDVKMLHSNKDKLHLYERTRALAPGN
effect on axonal outgrowth when provided as growth substrate (in trans) [5]: blocked axon growth

interaction with the 4Ig-domain of Neogenin [6]: interacted
interaction with the 6FNIII-domain of Neogenin [3]: interacted
B2: N-RGMa: N-terminal RGMa isoform of the CNS (protein)
chain: MQPPRERLVVTGRAGWMGMGRGAGRSALGLWPTLAFLLCSFPAAISPCKILKCNSEFWSATSSGSHAPASDDVPEFCAALRTYALCTRRTARTCRGDLAYHSAVHGIEDLMSQHNCSKDGPTSQPRVRTLPPAGDSQERSDSPEICHYEKSFHKHSAAPNYT
modifications: Mouse N-RGMa
notes: N-terminal RGMa isoform of the CNS
effect on axonal outgrowth when provided as growth substrate (in trans) [5]: blocked axon growth
